For one assay, the target named is Adalimumab. As to the kind of experiment: SPR. In general terms: SPR reads the build-up and loss of mass on a sensor chip optically.
Assay [1] concerns the target Adalimumab–pM440 complex (Mycoplasma genitalium) (UniProt P47523). As to the kind of experiment: SPR.
Assay [2] shares this target. As to the kind of experiment: SPR; single-cycle kinetic titration of TNFα on Adalimumab or on the Adalimumab-pM440 complex.

Two substances from PMC12560131 can be followed below.

Some results are limits rather than exact numbers.

What is called Kd is the equilibrium constant for the complex coming apart. Read a high Kd as a looser complex. Regarding “protein M440 (from UniProt P47523 1-440) (domain or fragment)”, the Kd with Adalimumab was below 0.15 nM.

Usually koff stands for the first-order rate constant of dissociation. Read a low koff as slow dissociation. By kon is commonly meant the rate constant with which the complex forms. Read a high kon as faster complex formation. In assay [1], “TNFα (from UniProt P01375 1-233) (ligand)” returned a fold decrease in affinity against Adalimumab without pM440 of 3 fold, a koff of 0.00046 s⁻¹ and an on-rate (kon) of 160000 M⁻¹ s⁻¹. The substance further returned a Kd in assay [2] of 2.94 nM.
